Assay results from patent US20110236874A1, “METHOD FOR FORMATION OF RENAL TUBULES” (priority 2008, published 2011).
“Also recorded” adds a separate entry of the source.

What was measured:
[1] = test system: primary human renal proximal tubule cells (HPTCs); experiment: Quantification of α-SMA expression by immunoblotting; format: cell-based; details: HPTCs on laminin + collagen IV treated with BMP-7 100 ng/ml; control uncoated TCP; FIG. 3
Description: Immunoblotting: For immunoblotting, cells were lyzed in 100 μl of heated NuPage LDS sample buffer (Invitrogen). Samples were collected, heated at 95° C. and centrifuged at 10,000 g for 2 minutes to pellet cell debris. Protein concentrations of the supernatants were measured with a NANODROP™ spectrophotometer (Biofrontier, Singapore). Appropriate amounts of the supernatants were loaded onto a NuPage precast gel (4-12%, Invitrogen) with the size marker PAGE Ruler Plus (Fermentas, Hanover, Md., USA). Proteins were transferred to iBlot membranes after electrophoresis. […]
After washing, the membranes were incubated with 0.2 μl/ml of both peroxidase-conjugated sheep anti-mouse antibody and donkey anti-rabbit antibody. […] The films were scanned and analyzed using Adobe Photoshop CS3.
FIG. 3. Quantification of α-SMA expression by immunoblotting. […] Proteins were extracted in each case from 3 replicas, and the extract obtained from each sample was loaded onto a separate lane of the gel. α-SMA (lower bands, 42 kD) and α-tubulin (loading control, upper bands, 50 kD) were detected by immunoblotting. […] (B) The intensities of the bands shown in (A) were determined. […]

[2] = test system: primary human renal proximal tubule cells (HPTCs); experiment: α-SMA immunostaining (myofibroblasts) in HPTC cultures on ECM coatings; format: cell-based; details: BMP-7 100 ng/ml constantly in the medium
Description: Immunostaining, histochemistry, and imaging: Immunostaining was performed as described in Sadoni et al. J Cell Biol 1999; 146(6): 1211-1226. The following primary antibodies were used: rabbit anti-ZO-1 (zonula occludens-1, Invitrogen, Carlsbad, Calif., USA) and mouse anti-α-smooth muscle actin (SMA) (Abcam, Cambridge, UK). Alexa Fluor 488-conjugated anti-rabbit (Invitrogen) and TRITC-conjugated anti-mouse (Invitrogen) secondary antibodies were applied. After immunostaining, cell nuclei were stained with DAPI and cells were mounted with vectashield (Vector Laboratories, Burlingame, Calif.) for microscopy. Histochemical detection of γGTP activity and controls were performed as described in Ryan et al. Kidney Int 1994; 45(1):48-57. Imaging was performed with a Zeiss AxioObserver Z1 microscope (Carl Zeiss, Jena, Germany) using the Zeiss AXIOVISION™ imaging software.
Disintegration of tight junctions after a certain time point is indicated. […]
Based on these observations, the question arose why the monolayer always disintegrated and could not be maintained for longer periods. […] Therefore, the presence of α-SMA-positive cells was monitored in the final experimental series. α-SMA is expressed in myofibroblasts but not in epithelial cells, and was detected in these experiments together with ZO-1 by co-immunostaining (FIG. 2).

B1: BMP-7: Bone morphogenetic protein (BMP)-7 (Sigma), added at 100 ng/ml (protein, UniProt P18075 293-431, looked up)
Bone morphogenetic protein 7: STGSKQRSQNRSKTPKNQEALRMANVAENSSSDQRQACKKHELYVSFRDLGWQDWIIAPEGYAAYYCEGECAFPLNSYMNATNHAIVQTLVHFINPETVPKPCCAPTQLNAISVLYFDDSSNVILKKYRNMVVRACGCH
- α-SMA expression by immunoblotting (ratio to α-tubulin) versus control [1]: significant differences compared to the control; also recorded: significantly (p 0.002) higher
- appearance of α-SMA-expressing cells and tight junction formation [2]: high numbers of α-SMA-expressing cells, associated with poor formation of tight junctions
